According to publication PMC2908503:

Columns and labels:
Experiment in all cases: NMR titration
[1] = target: MLL CXXC L1197A (human, UniProt Q03164 1147-1203, L1197A)
[2] = target: MLL CXXC R1150A (human, UniProt Q03164 1147-1203, R1150A)
[3] = target: MLL CXXC C1188A (human, UniProt Q03164 1147-1203, C1188A)
[4] = target: MLL CXXC domain WT (human, UniProt Q03164 1147-1203)
[5] = target: MLL CXXC M1200A (human, UniProt Q03164 1147-1203, M1200A)
[6] = target: MLL CXXC Q1187A (human, UniProt Q03164 1147-1203, Q1187A)
Chain of MLL CXXC Q1187A (Q03164 1147-1203 Q1187A): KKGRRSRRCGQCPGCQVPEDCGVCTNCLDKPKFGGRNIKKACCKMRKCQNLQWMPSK

Chain of MLL CXXC C1188A (Q03164 1147-1203 C1188A): as the sequence (Q03164 1147-1203 Q1187A) above, with A41Q, C42A counted along it
Chain of MLL CXXC L1197A (Q03164 1147-1203 L1197A): as the sequence (Q03164 1147-1203 Q1187A) above, with A41Q, L51A counted along it
Chain of MLL CXXC R1150A (Q03164 1147-1203 R1150A): as the sequence (Q03164 1147-1203 Q1187A) above, with R4A, A41Q counted along it
Chain of MLL CXXC M1200A (Q03164 1147-1203 M1200A): as the sequence (Q03164 1147-1203 Q1187A) above, with A41Q, M54A counted along it
Chain of MLL CXXC domain WT (Q03164 1147-1203): as the sequence (Q03164 1147-1203 Q1187A) above, with A41Q counted along it

B1: DNApal (dsDNA)
DNA 1: CCCTGCGCAGGG
DNA 2: CCCTGCGCAGGG
With B1 the binding signal [1] was 4 fold decrease in binding vs WT, the binding signal [2] was 5 fold decrease in binding vs WT and the binding result [3] was “binds”. The Kd [4] was 44 µM, the binding result [5] was “binds” and the binding signal [6] was 6 fold higher Kd vs WT.
